Test results published in publication PMC5014452.

Legend:
Experiment in all cases: EMSA
[1] = target: recombinant human integrin α6β1 (Homo sapiens, UniProt P23229;P05556 24-1050;21-728)
[2] = target: recombinant murine integrin α6β4 (Mus musculus, UniProt Q61739;A2A863 24-1011;29-712)
[3] = target: recombinant human integrin α6β4 (Homo sapiens, UniProt P23229;P16144 24-1050;28-710)

Measured: binding result

Chain of recombinant human integrin α6β1 (P23229 24-1050, chain 1 of 2): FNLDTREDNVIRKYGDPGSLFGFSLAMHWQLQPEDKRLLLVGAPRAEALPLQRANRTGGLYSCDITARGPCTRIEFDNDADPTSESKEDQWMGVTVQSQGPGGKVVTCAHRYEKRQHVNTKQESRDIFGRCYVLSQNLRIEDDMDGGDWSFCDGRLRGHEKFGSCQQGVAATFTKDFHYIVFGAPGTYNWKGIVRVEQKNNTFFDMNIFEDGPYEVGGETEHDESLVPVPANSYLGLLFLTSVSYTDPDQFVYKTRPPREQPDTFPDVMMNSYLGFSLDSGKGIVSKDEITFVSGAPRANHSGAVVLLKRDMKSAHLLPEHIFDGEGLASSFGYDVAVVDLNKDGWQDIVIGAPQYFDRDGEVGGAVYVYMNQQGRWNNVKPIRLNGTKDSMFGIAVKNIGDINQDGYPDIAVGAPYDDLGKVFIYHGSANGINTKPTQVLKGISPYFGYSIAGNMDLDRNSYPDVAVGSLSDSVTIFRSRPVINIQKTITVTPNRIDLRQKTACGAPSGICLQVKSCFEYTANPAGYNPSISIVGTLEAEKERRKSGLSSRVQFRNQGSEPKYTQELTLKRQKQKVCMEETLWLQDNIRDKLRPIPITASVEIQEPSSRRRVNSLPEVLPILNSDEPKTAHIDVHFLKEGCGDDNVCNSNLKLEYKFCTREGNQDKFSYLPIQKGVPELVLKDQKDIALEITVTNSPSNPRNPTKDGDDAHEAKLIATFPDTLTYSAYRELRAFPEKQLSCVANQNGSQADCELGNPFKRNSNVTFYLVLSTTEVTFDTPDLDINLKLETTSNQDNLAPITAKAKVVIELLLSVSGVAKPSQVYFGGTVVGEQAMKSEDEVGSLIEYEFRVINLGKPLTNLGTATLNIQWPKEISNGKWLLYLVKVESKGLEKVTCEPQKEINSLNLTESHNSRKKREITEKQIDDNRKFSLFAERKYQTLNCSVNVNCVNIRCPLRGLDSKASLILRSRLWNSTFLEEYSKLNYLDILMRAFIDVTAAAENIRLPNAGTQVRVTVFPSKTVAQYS
Chain of recombinant human integrin α6β1 (P05556 21-728, chain 2 of 2): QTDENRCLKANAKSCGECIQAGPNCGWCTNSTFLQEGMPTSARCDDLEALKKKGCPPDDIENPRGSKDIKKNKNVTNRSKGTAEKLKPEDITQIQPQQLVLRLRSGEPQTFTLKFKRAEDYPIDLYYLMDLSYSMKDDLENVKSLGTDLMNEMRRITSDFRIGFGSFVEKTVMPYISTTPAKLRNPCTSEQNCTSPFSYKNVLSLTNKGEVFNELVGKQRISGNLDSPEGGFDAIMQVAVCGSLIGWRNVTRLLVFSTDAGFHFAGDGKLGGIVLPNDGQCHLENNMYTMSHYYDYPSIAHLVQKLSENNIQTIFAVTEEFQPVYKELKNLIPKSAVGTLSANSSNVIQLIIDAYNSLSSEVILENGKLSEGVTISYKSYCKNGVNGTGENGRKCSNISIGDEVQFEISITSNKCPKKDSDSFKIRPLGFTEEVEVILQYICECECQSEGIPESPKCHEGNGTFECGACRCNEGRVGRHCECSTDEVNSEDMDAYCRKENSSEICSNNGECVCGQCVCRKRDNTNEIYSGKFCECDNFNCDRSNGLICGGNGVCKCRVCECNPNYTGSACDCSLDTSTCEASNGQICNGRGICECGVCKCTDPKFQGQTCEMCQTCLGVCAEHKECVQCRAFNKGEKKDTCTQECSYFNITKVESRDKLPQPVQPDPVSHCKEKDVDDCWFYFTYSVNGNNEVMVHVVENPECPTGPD
Chain of recombinant human integrin α6β4 (P23229 24-1050, chain 1 of 2): as the sequence (P23229 24-1050, chain 1 of 2) above
Chain of recombinant human integrin α6β4 (P16144 28-710, chain 2 of 2): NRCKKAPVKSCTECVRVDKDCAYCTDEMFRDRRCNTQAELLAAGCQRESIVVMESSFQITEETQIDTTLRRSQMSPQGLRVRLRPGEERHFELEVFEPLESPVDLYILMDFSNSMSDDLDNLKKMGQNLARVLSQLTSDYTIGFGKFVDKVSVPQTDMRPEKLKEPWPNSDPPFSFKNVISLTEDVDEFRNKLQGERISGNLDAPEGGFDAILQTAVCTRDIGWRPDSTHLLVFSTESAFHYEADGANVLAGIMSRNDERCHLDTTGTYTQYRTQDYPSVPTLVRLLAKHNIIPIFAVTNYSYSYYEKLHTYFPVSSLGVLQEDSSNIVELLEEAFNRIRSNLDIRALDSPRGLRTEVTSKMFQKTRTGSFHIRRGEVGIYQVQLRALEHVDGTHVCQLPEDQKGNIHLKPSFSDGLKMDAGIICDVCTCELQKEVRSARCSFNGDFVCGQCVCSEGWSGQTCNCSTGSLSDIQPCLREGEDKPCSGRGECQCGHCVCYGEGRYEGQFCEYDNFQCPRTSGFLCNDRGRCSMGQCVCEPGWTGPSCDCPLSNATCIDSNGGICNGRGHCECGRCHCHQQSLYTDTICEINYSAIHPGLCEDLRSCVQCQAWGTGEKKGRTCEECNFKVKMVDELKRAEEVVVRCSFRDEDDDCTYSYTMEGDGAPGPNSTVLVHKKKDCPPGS
Chain of recombinant murine integrin α6β4 (Q61739 24-1011, chain 1 of 2): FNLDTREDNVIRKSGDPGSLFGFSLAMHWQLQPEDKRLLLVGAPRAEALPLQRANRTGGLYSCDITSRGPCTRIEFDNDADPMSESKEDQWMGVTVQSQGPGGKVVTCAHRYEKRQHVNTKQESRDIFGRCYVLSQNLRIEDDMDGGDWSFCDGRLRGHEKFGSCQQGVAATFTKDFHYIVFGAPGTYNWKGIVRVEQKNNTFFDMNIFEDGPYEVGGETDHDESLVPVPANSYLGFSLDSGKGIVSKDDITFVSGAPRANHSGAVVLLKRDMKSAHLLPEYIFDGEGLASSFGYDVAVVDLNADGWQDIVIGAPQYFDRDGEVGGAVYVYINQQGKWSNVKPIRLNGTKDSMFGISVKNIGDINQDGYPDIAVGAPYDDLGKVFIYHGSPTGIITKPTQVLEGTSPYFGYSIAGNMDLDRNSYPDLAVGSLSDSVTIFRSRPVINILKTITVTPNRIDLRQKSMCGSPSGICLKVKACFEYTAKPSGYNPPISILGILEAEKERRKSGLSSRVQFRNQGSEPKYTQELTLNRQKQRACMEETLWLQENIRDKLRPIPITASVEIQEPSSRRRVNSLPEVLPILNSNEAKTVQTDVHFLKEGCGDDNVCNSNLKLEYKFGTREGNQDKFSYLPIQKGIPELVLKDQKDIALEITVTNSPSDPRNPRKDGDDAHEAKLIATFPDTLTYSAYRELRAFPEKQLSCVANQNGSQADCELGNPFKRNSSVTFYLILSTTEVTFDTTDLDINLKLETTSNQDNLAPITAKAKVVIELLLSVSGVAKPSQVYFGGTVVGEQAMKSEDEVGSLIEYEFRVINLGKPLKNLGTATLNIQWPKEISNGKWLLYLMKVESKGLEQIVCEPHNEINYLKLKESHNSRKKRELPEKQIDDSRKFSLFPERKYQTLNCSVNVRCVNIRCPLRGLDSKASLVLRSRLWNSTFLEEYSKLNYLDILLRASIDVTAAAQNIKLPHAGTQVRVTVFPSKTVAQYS
Chain of recombinant murine integrin α6β4 (A2A863 29-712, chain 2 of 2): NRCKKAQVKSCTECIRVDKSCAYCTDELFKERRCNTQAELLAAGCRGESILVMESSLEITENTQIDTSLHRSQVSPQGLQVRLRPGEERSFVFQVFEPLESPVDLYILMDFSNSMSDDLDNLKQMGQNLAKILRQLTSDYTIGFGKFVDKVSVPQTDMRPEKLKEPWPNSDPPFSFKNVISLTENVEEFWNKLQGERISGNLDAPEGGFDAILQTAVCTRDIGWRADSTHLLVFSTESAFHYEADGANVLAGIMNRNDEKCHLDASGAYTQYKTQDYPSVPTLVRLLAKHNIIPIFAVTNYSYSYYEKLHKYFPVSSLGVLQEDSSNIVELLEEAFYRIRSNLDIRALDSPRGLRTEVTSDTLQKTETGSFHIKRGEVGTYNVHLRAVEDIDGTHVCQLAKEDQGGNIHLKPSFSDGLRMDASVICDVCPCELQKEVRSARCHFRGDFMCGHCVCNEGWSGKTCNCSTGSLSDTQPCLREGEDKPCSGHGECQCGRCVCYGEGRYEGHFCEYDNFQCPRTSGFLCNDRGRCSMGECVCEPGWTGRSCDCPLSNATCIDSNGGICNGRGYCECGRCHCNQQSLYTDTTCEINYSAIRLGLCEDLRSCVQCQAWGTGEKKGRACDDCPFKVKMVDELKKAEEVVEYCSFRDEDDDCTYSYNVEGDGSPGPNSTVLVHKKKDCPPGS

B1: IDA (nc28) (ssDNA)
DNA: GCCTGTTGTGAGCCTCCTAACCGTGCGTATTCGTACTGGAACTGATATCGATGTCCCCATGCTTATTCTTGTCTCCC
binds: all assays above
